# Assay results taken from patent publication US20020165128A1, “Compositions and methods for proteolytically inactivating infectious agents using lactoferrin and related molecules” (priority 1998, published 2002).
# Changes are numbered by the printed parent chain. Read-outs that look alike come from different tables or passages of the source.
# B1: human milk lactoferrin: lactoferrin purified from human milk whey using anion exchange and molecular sieve chromatography (protein, UniProt P02788 20-710, looked up)
# Lactotransferrin: GRRRSVQWCAVSQPEATKCFQWQRNMRKVRGPPVSCIKRDSPIQCIQAIAENRADAVTLDGGFIYEAGLAPYKLRPVAAEVYGTERQPRTHYYAVAVVKKGGSFQLNELQGLKSCHTGLRRTAGWNVPIGTLRPFLNWTGPPEPIEAAVARFFSASCVPGADKGQFPNLCRLCAGTGENKCAFSSQEPYFSYSGAFKCLRDGAGDVAFIRESTVFEDLSDEAERDEYELLCPDNTRKPVDKFKDCHLARVPSHAVVARSVNGKEDAIWNLLRQAQEKFGKDKSPKFQLFGSPSGQKDLLFKDSAIGFSRVPPRIDSGLYLGSGYFTAIQNLRKSEEEVAARRARVVWCAVGEQELRKCNQWSGLSEGSVTCSSASTTEDCIALVLKGEADAMSLDGGYVYTAGKCGLVPVLAENYKSQQSSDPDPNCVDRPVEGYLAVAVVRRSDTSLTWNSVKGKKSCHTAVDRTAGWNIPMGLLFNQTGSCKFDEYFSQSCAPGSDPRSNLCALCIGDEQGENKCVPNSNERYYGYTGAFRCLAENAGDVAFVKDVTVLQNTDGNNNEAWAKDLKLADFALLCLDGKRKPVTEARSCHLAMAPNHAVVSRMDKVERLKQVLLHQQAKFGRNGSDCPDKFCLFQSETKNLLFNDNTECLARLHGKTTYEKYLGPQYVAGITNLKKCSTSPLLEACEFLRK
# How the values were obtained:
# [1] = target: T1, 20 amino acid peptide Ala1007-Phe1026 of Hap (Haemophilus influenzae, UniProt P45387); experiment: Lactoferrin cleavage of synthetic Hap peptide, mass spectrometry; format: biochemical
# T1 construct: a 20 amino acid peptide corresponding to residues Ala1007-Phe1026 of Hap was synthesized; made in house; host or cells: chemical synthesis (f-moc), Protein Chemistry Laboratory at Tufts University
# Text: Next, a 20 amino acid peptide corresponding to residues Ala1007-Phe1026 of Hap was synthesized and subjected to cleavage by milk lactoferrin.
# [2] = target: peptide fragments of IgA1 protease (Haemophilus influenzae, UniProt P44969); details: 60 amino acid peptide ending at Arg1397; similar with the 80, 40 and 20 amino acid peptides
# peptide fragments of IgA1 protease, sequence (P44969 1338-1397): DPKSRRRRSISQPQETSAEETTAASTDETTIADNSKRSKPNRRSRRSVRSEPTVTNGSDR
# Description: To further define the site of cleavage of the IgA1 protease precursor protein, N-Iga was resolved on an SDS-PAGE gel, then stained with Coomassie blue and excised. The excised band was subjected to Lys-C digestion, and mass spectrometry was performed. […] Subsequently, these peptides were treated with lactoferrin and then examined the reaction mixtures by mass spectrometry.
# Digests involving lactoferrin and synthetic peptides were extracted twice with 50 μL acetonitrile/2% TFA and then dried and resuspended in matrix solution for analysis by MALDI mass spectrometry.
# [3] = target: H. influenzae IgA1 protease precursor (Haemophilus influenzae, UniProt P44969, S288V)
# H. influenzae IgA1 protease precursor, sequence (P44969 26-1694 S288V): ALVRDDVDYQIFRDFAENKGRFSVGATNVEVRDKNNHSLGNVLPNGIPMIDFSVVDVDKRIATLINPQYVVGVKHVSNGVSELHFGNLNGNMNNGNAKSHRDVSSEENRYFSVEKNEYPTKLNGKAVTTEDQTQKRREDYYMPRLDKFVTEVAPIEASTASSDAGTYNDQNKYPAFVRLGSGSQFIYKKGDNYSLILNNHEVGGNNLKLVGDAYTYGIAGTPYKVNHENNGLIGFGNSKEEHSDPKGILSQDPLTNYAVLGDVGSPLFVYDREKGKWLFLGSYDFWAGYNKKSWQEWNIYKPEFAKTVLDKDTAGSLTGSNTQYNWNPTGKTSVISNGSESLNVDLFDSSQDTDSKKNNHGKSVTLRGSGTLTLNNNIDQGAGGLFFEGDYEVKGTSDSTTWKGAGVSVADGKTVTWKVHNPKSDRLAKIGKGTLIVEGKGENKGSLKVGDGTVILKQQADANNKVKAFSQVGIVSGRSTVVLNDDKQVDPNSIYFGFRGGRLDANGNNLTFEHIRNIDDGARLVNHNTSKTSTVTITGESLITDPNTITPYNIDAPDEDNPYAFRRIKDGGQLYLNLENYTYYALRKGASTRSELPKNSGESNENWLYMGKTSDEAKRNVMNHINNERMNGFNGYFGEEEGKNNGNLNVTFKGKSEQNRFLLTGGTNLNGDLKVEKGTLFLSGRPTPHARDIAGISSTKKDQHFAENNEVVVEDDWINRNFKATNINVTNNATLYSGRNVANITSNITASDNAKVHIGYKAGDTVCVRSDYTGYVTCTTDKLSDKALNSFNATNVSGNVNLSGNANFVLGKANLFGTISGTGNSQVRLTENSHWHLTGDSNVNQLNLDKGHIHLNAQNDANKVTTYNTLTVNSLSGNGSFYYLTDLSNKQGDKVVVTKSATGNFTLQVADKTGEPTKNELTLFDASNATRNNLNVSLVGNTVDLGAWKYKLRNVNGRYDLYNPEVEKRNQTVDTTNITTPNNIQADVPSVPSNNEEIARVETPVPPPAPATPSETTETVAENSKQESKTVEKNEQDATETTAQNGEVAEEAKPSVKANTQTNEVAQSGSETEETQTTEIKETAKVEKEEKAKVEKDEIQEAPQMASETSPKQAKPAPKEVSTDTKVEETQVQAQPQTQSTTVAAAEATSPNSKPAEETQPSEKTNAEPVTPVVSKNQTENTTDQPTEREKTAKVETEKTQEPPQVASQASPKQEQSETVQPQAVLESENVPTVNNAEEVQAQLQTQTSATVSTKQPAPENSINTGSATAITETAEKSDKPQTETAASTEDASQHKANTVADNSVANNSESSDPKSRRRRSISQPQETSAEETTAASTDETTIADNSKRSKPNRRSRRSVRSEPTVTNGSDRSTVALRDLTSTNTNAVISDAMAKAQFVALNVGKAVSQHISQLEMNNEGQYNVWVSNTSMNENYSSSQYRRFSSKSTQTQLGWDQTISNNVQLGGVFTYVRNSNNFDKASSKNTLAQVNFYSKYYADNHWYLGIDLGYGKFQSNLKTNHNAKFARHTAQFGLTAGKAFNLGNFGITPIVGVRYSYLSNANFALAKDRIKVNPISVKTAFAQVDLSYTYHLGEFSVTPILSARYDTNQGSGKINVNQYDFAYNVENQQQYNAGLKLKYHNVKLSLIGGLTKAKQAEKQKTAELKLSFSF
# Description: The Rd strain was grown in brain heart-infusion broth supplemented with hemin (10 μg/ml) and nicotinamide adenine dinucleotide (2 μg/ml) to mid-log phase, and then harvested by centrifugation.
# All samples were collected in sterile beakers; within 6 hours of collection they were centrifuged at 10,000×g for 20 min at 4 C to remove lipids and cells. The resulting whey was stored at −70 C and was prepared for use by thawing slowly, without further modifications. 2×10^9 H. influenzae cells were resuspended in 1 ml of the unmodified human milk whey and incubated at 37 C with gentle mixing. Samples were removed at intervals between 2 minutes and 1 hour. Whole cells and supernatants were examined by Western immunoblot using antisera directed against all domains of the preprotein.
# Mid-log phase Rd3-13 bacteria were incubated in milk whey, and aliquots were removed at the times shown.
# The antiserum used was anti-Rd3-13, which reacts with IgAp, IgAa, and IgAb.
# [4] = test system: H. influenzae Hap adhesin; format: cell-based, Haemophilus influenzae; details: lowest concentration (87 nM), treatment of cells for 1 hour
# [5] = target: T2, H. influenzae Hap adhesin (Haemophilus influenzae, UniProt P45387, S243A); format: cell-based; details: DB117 expressing HapS243A, 13 μM, whole cells
# T2 construct: expressed in transfected cells; host or cells: H. influenzae strain DB117 carrying pJS106
# T2 sequence (P45387 26-1394 S243A): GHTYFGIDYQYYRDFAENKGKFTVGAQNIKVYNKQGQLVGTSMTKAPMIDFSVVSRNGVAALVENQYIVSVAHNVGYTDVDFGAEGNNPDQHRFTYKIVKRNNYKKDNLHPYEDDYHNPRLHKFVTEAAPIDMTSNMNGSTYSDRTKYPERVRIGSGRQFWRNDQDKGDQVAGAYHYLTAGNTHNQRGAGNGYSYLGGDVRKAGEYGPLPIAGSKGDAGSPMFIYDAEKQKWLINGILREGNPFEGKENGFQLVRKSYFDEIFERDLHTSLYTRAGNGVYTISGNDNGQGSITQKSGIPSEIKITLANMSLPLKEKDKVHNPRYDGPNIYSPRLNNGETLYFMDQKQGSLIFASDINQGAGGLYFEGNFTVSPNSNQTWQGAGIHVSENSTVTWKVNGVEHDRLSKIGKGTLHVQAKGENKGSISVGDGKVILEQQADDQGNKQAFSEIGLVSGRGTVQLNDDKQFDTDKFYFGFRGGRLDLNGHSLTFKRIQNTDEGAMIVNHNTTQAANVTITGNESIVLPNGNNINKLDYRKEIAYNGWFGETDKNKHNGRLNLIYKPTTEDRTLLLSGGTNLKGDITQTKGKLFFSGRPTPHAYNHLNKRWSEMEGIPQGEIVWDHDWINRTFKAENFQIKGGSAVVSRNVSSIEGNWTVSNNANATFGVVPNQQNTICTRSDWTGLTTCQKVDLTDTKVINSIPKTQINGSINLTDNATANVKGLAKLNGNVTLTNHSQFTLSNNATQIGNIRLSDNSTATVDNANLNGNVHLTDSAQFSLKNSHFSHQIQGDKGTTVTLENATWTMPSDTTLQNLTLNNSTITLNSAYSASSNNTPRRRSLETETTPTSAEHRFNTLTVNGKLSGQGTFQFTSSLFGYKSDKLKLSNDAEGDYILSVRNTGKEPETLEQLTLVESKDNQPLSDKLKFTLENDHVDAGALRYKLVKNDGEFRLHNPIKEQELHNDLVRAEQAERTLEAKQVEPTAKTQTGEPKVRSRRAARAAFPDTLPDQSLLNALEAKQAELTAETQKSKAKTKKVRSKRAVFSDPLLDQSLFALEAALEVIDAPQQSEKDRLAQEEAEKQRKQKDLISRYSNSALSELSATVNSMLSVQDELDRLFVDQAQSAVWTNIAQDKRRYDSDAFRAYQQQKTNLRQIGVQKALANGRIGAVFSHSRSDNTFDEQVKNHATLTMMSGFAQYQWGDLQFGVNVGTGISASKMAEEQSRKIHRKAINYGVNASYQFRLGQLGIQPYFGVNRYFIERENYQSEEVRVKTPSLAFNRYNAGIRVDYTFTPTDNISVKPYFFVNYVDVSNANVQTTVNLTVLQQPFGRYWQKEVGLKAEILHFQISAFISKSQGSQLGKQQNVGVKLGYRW
# [6] = target: T3, H. influenzae Hap adhesin (Haemophilus influenzae, UniProt P45387); format: cell-based; details: DB117 expressing wild-type Hap, 13 μM
# T3 construct: expressed in transfected cells; host or cells: H. influenzae strain DB117 carrying pJS106
# T3 sequence (P45387 26-1394): T2 sequence (P45387 26-1394 S243A) with A218S
molecule,measurement,setting,value
B1,cleavage site in Hap peptide,[1],cleavage between Arg1019 and Arg1020 and between Arg1020 and Ala1021
same,cleavage site in IgA1 protease peptides,[2],cleavage between Arg1382 and Arg1383 and between Arg1383 and Ser1384
same,removal of IgA protease precursor,"[3]; Rd3-13, 30 min. incubation, bacterial cell pellet",small amount of precursor protein remaining
same,removal of IgA protease precursor,"[3]; Rd3-13, after 15 minutes",a large amount of precursor has been proteolytically removed
same,proteolysis of Hap,[4],proteolysis detectable but incomplete
same,effect on Hap preprotein,[5],loss of the Hap preprotein and generation of a Hap C-terminal fragment
same,effect on Hap,[6],"resulted in proteolysis, rather than extraction of Hap"
